These results are taken from US20240158497A1 (published 2024).

Assay [1] deals with T1, Macaca Fascicularis LEPR extracellular domain expressed with a C-terminal myc-myc-hexahistidine tag (Macaca fascicularis, UniProt Q9MYL0 22-837 (rhesus entry)).
T1 construct: Monomeric reagent; the whole entry is the construct with its tag; also called mfLEPR-MMH
In words: SPR Biacore 4000, bsAb captured by anti-human Fc, 25 C. The method, then: (§1) Equilibrium dissociation constants (KD values) for LEPR and GP130 binding to purified anti-LEPR/GP130 bispecific antibodies were determined using a real-time surface plasmon resonance biosensor using a Biacore 4000 instrument. All binding studies were performed in 10 mM HEPES, 150 mM NaCl, 3 mM EDTA, and 0.05% v/v Surfactant Tween-20, pH 7.4 (HBS-ET) running buffer at 25° C. and 37° C. The Biacore sensor surface was first derivatized by amine coupling with a monoclonal mouse anti-human Fc antibody (GE, #BR-1008-39) to capture anti-LEPR/GP130 bispecific antibodies. […] Different concentrations of LEPR or GP130 reagents were first prepared in HBS-ET running buffer (100 nM-3.7 nM; 3-fold serial dilution) and were injected over anti-human Fc captured anti-LEPR/GP130 bispecific antibody surface for 4 minutes at a flow rate of 30 μL/minute, while the dissociation of bispecific antibody bound LEPR or GP130 reagent was monitored for 10 minutes in HBS-ET running buffer. Kinetic association (kₐ) and dissociation (kd) rate constants were determined by fitting the real-time binding sensorgrams to a 1:1 binding model with mass transport limitation using Scrubber 2.0c curve-fitting software. Binding dissociation equilibrium constants (KD) and dissociative half-lives (t ½) were calculated from the kinetic rate constants as: […]

Assay [2] deals with T2, human LEPR extracellular domain expressed with a C-terminal myc-myc-hexahistidine tag (human, UniProt P48357 22-839).
T2 construct: Monomeric reagent; the whole entry is the construct with its tag; also called hLEPR-MMH; hLEPR.mmh
T2 sequence (P48357 other isoform, or with tags, fused parts or gaps): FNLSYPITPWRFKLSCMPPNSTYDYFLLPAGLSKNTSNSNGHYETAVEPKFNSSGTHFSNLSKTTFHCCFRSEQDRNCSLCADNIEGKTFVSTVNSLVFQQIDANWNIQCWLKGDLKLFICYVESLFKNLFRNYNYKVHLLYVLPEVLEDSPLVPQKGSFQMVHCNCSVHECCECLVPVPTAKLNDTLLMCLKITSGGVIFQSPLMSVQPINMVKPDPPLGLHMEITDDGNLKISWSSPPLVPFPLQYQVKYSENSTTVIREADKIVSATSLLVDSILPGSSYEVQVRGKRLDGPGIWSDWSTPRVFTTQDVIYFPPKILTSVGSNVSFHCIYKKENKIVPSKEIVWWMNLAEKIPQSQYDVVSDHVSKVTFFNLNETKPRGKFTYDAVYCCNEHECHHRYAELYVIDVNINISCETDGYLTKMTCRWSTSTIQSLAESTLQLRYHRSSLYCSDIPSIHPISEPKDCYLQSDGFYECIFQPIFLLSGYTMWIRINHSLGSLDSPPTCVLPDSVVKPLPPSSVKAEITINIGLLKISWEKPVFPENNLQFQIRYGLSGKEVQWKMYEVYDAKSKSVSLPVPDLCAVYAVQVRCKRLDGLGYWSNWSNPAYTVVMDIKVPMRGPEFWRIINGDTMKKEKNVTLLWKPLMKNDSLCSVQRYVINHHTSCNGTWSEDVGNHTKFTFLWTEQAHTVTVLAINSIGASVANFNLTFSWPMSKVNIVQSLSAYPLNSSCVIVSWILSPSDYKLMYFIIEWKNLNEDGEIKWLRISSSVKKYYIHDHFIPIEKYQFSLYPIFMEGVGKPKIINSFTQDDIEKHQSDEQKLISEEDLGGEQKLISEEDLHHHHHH
Described as above. The method, then:
as §1

In assay [3] the target is T1, Macaca Fascicularis LEPR extracellular …. In words: SPR Biacore 4000, bsAb captured by anti-human Fc, 37 C. The procedure: as §1
In assay [4] the target is T2, human LEPR extracellular domain …. The description is as above. The procedure: as §1

T1 sequence (Q9MYL0 other isoform, or with tags, fused parts or gaps): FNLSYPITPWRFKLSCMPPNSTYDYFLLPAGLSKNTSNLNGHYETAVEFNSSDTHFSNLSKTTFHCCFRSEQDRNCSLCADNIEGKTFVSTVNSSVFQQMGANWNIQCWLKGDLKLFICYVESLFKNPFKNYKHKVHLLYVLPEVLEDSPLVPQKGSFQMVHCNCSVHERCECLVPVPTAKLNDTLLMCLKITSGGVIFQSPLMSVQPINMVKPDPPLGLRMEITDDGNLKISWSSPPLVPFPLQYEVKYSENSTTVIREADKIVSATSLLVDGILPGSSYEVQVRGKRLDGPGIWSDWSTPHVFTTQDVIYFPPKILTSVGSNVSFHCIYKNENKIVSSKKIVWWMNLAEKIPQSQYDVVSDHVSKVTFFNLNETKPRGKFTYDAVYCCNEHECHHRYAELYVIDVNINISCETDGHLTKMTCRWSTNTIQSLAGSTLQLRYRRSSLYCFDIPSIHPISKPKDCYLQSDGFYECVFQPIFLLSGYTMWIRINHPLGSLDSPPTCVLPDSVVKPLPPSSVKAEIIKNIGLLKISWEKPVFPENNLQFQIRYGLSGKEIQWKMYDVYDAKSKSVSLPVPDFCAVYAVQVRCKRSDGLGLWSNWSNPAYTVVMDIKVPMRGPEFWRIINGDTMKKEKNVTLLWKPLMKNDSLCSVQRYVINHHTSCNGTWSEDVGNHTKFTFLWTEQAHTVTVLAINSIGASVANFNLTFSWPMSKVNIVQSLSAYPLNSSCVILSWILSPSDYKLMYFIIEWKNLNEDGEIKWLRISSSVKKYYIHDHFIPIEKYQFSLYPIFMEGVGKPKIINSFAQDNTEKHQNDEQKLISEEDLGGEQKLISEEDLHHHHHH

B1: bsAb19139D (bispecific antibody, V domains shown)
VH 1: QVQLVESGGGVVQPGRSLRLSCTASGFTFSSYAMYWVRQAPGKGLEWVSVIYYDGSYKYYADSVKGRFTISRDNSKNTLYLQMDSLRAEDTAVYYCASYNWNYWYFDFWGRGTLVTVSS
VH 2: QVQLVESGGGVVQPGGSLRLSCAASGFTFSTYDIHWVRQAPGKGLEWVAVISFDGSNRNYGDSVKGRFTISRDNSDNTLFLEMNNLRFEDTAVYYCAKEGYGVDFQHWGQGTLVTVSS
VL: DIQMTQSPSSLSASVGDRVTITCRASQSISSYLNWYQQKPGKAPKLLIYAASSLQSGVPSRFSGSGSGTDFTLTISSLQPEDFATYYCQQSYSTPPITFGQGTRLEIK
notes: two different heavy chains with a common light chain
On to B1, for which, in assay [1], the “100 nM mfLEPR-MMH Bound (RU)” value came to 103 RU, the dissociation constant Kd is 2.93 nM, the koff is 0.000128 s⁻¹ and the kon came to 43600 M⁻¹ s⁻¹. The molecule further registered a t½ in assay [1] of 90 min. Further, in assay [2], the “100 nM hLEPR-MMH Bound (RU)” value is 41 RU, binding was put at a Kd of 7.09 nM, the off-rate (koff) amounted to 0.000171 s⁻¹ and the association rate constant (kon) was found to be 24100 M⁻¹ s⁻¹. The molecule further yielded a t½ in assay [2] of 68 min. Further, in assay [3], the “100 nM mfLEPR-MMH Bound (RU)” value was 163 RU, the Kd came out at 5.42 nM, the koff stood at 0.000559 s⁻¹ and the kon stood at 103000 M⁻¹ s⁻¹. The molecule also displayed a t½ in assay [3] of 21 min. Besides, in assay [4], the “100 nM hLEPR-MMH Bound (RU)” value was determined as 67 RU, binding was put at a Kd of 21.2 nM, the koff is 0.000762 s⁻¹ and the kon is 35800 M⁻¹ s⁻¹. In addition, the t½ in assay [4] came out at 15 min.

B2: bsAb19144D (bispecific antibody, V domains shown)
VH 1: B1 VH 1
VH 2: QVQLVQSGAEVKKPGASVKVSCKASGYTFTSLGISWVRQAPGQGLEWMGWISAYSGNRDYAQKFQGRVTMTTDTSTSTAYMELRSLRSDDTAVYYCARSLRFDYWGQGTLVTVSS
VL: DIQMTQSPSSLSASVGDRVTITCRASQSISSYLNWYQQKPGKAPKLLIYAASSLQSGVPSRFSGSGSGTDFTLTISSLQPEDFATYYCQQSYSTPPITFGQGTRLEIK
notes: common light chain
B2: in assay [1], the “100 nM mfLEPR-MMH Bound (RU)” value stood at 114 RU, the dissociation constant Kd is 3.02 nM, the koff turned out to be 0.000124 s⁻¹ and the kon amounted to 41100 M⁻¹ s⁻¹. Further, the t½ in assay [1] was 93 min. Further, in assay [2], the “100 nM hLEPR-MMH Bound (RU)” value was 48 RU, the Kd is 6.48 nM, the dissociation rate constant (koff) came to 0.000159 s⁻¹ and the kon came to 24600 M⁻¹ s⁻¹. This molecule also showed a t½ in assay [2] of 73 min. Moreover, in assay [3], the “100 nM mfLEPR-MMH Bound (RU)” value came to 178 RU, binding was put at a Kd of 5.22 nM, the koff is 0.000517 s⁻¹ and the kon is 99100 M⁻¹ s⁻¹. The t½ in assay [3] was found to be 22 min. In assay [4], the “100 nM hLEPR-MMH Bound (RU)” value was 78 RU, the Kd stood at 16.2 nM, the off-rate constant (koff) is 0.000597 s⁻¹ and the kon was found to be 36800 M⁻¹ s⁻¹. In addition, the t½ in assay [4] came to 19 min.

B3: bsAb19145D (bispecific antibody, V domains shown)
VH 1: B1 VH 1
VH 2: EVQLVESGGGLVQPGRSLRLSCAASGFTLDDFAMHWVRQAPGKGLEWVSGISWNSGNIGYADSVKGRFTISRDNARNSLYLQMNSLRAEDTALYYCTSGYYLYYAMDVWGQGTTVTVSS
VL: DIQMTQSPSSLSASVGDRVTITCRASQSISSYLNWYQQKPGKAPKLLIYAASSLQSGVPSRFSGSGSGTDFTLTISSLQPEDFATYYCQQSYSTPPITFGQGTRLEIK
notes: common light chain
B3: in assay [1], the “100 nM mfLEPR-MMH Bound (RU)” value came out at 102 RU, the Kd was 2.75 nM, the koff stood at 0.000123 s⁻¹ and the kon came to 44900 M⁻¹ s⁻¹. In addition, in assay [1], the t½ turned out to be 94 min. Moreover, in assay [2], the “100 nM hLEPR-MMH Bound (RU)” value was found to be 41 RU, the Kd was 6.62 nM, the off-rate (koff) was 0.000165 s⁻¹ and the kon amounted to 24900 M⁻¹ s⁻¹. This molecule also had a t½ in assay [2] of 70 min. Further, in assay [3], the “100 nM mfLEPR-MMH Bound (RU)” value turned out to be 162 RU, binding was characterised by a dissociation constant (Kd) of 5.48 nM, the koff was 0.000566 s⁻¹ and the kon was found to be 103000 M⁻¹ s⁻¹. Also, in assay [3], the t½ turned out to be 20 min. Moreover, in assay [4], the “100 nM hLEPR-MMH Bound (RU)” value was 66 RU, the dissociation constant Kd came out at 20.8 nM, the koff worked out at 0.000805 s⁻¹ and the kon was found to be 38600 M⁻¹ s⁻¹. In assay [4], this molecule returned a t½ of 14 min.

B4: bsAb19142D (bispecific antibody, V domains shown)
VH 1: B1 VH 1
VH 2: EVQLVESGGGLVQPGGSLRLSCAASGLTFSSYEMNWVRQAPGKGLEWVSHISSAGSTKYYADSVKGRFTISRDNAKNSLFLQMNSLRAEDTAIYYCAGYNYAYYYFGVDVWGQGTTVTVSS
VL: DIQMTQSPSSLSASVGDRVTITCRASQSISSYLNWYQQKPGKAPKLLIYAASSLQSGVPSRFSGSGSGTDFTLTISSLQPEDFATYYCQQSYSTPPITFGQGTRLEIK
notes: common light chain
With B4, in assay [1], the “100 nM mfLEPR-MMH Bound (RU)” value stood at 112 RU, the Kd was 2.74 nM, the koff was 0.000126 s⁻¹ and the kon was 45900 M⁻¹ s⁻¹. This molecule also came in with a t½ in assay [1] of 92 min. Further, in assay [2], the “100 nM hLEPR-MMH Bound (RU)” value worked out at 46 RU, binding was put at a Kd of 7.76 nM, the koff came out at 0.000175 s⁻¹ and the on-rate constant (kon) is 22500 M⁻¹ s⁻¹. Also, in assay [2], the t½ was found to be 66 min. For the same molecule, in assay [3], the “100 nM mfLEPR-MMH Bound (RU)” value was 172 RU, the Kd was determined as 5.57 nM, the koff was determined as 0.000529 s⁻¹ and the kon was 94900 M⁻¹ s⁻¹. This molecule came in with a t½ in assay [3] of 22 min. In addition, in assay [4], the “100 nM hLEPR-MMH Bound (RU)” value stood at 74 RU, the Kd stood at 18.6 nM, the koff was 0.000633 s⁻¹ and the kon was 34000 M⁻¹ s⁻¹. The t½ in assay [4] stood at 18 min.

B5: bsAb19141D (bispecific antibody, V domains shown)
VH 1: B1 VH 1
VH 2: EVQLVESGGGVVRPGGSLRLSCTASGFTFDDYGMSWVRQAPGKGLEWVSGINWNGGRTEYADAVKGRFIISRDNAKNSLYLQMNSLRAEDTALYFCARTELRWDYWGQGTLVTVSS
VL: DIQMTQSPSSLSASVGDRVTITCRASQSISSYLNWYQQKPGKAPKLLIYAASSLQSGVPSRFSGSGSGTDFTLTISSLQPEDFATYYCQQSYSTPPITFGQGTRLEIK
notes: common light chain
As for B5, in assay [1], the “100 nM mfLEPR-MMH Bound (RU)” value was determined as 110 RU, the Kd turned out to be 2.86 nM, the koff is 0.000124 s⁻¹ and the kon is 43300 M⁻¹ s⁻¹. In addition, the t½ in assay [1] was 93 min. Further, in assay [2], the “100 nM hLEPR-MMH Bound (RU)” value came out at 45 RU, the Kd is 5.91 nM, the koff is 0.000151 s⁻¹ and the kon was determined as 25400 M⁻¹ s⁻¹. Further, the t½ in assay [2] came to 77 min. Moreover, in assay [3], the “100 nM mfLEPR-MMH Bound (RU)” value came to 173 RU, the Kd is 5.05 nM, the dissociation rate constant (koff) is 0.000522 s⁻¹ and the kon was 103000 M⁻¹ s⁻¹. In assay [3], this molecule had a t½ of 22 min. In assay [4], the “100 nM hLEPR-MMH Bound (RU)” value is 74 RU, binding was put at a Kd of 16.6 nM, the koff is 0.000589 s⁻¹ and the kon turned out to be 35400 M⁻¹ s⁻¹. Besides, the t½ in assay [4] is 20 min.

B6: bsAb19140D (bispecific antibody, V domains shown)
VH 1: B1 VH 1
VH 2: QVQLQESGPGLVKPSETLSLTCTVSGGSISNYYWTWIRQPPGKGLEWIGHISNSGTTNYNPSLKSRVTISVDTSKNQFSLKLTSVTAADTAVYYCARLPLGIAAVDTDYYYYFGMDVWGQGTTVTVSS
VL: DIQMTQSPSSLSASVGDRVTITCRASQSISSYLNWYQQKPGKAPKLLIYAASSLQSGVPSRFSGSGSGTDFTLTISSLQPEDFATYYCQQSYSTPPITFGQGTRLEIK
notes: common light chain
On to B6, for which, in assay [1], the “100 nM mfLEPR-MMH Bound (RU)” value was 112 RU; the affinity, expressed as Kd, was 2.69 nM; the off-rate (koff) is 0.000121 s⁻¹; the on-rate (kon) was 45000 M⁻¹ s⁻¹. In assay [1], this molecule yielded a t½ of 95 min. Besides, in assay [2], the “100 nM hLEPR-MMH Bound (RU)” value came out at 47 RU, the Kd was 7.36 nM, the koff is 0.00018 s⁻¹ and the kon was 24500 M⁻¹ s⁻¹. Moreover, the t½ in assay [2] came to 64 min. Besides, in assay [3], the “100 nM mfLEPR-MMH Bound (RU)” value came to 175 RU; the affinity, expressed as Kd, was 5.6 nM; the koff is 0.000572 s⁻¹; the on-rate constant (kon) was found to be 102000 M⁻¹ s⁻¹. This molecule showed a t½ in assay [3] of 20 min. In addition, in assay [4], the “100 nM hLEPR-MMH Bound (RU)” value amounted to 75 RU, the Kd stood at 21.4 nM, the koff was found to be 0.000818 s⁻¹ and the kon came out at 38200 M⁻¹ s⁻¹. This molecule also registered a t½ in assay [4] of 14 min.

B7: bsAb19143D (bispecific antibody, V domains shown)
VH 1: B1 VH 1
VH 2: QLQLQESGPGLVKPSETLSLICTVSGGSISSNNYYWGWIRQPPGKGLEWIGNLYGSGSTYYNPSLKSRVTISVDTSKNQFSLKLSFVTAADTAVYHCARWDTNGGAFDIWGQGTMVTVSS
VL: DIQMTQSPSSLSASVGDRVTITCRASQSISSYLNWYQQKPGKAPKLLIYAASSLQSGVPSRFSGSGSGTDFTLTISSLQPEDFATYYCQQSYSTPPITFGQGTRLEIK
notes: common light chain
On to B7, for which, in assay [1], the “100 nM mfLEPR-MMH Bound (RU)” value turned out to be 111 RU, binding was put at a Kd of 3.04 nM, the koff was found to be 0.000136 s⁻¹ and the kon was found to be 44800 M⁻¹ s⁻¹. In assay [1], this molecule showed a t½ of 85 min. In assay [2], the “100 nM hLEPR-MMH Bound (RU)” value amounted to 45 RU, the Kd is 7.31 nM, the koff is 0.000182 s⁻¹ and the kon is 24900 M⁻¹ s⁻¹. The t½ in assay [2] turned out to be 64 min. Besides, in assay [3], the “100 nM mfLEPR-MMH Bound (RU)” value came to 171 RU, the Kd stood at 5.74 nM, the koff is 0.000551 s⁻¹ and the on-rate constant (kon) was determined as 95900 M⁻¹ s⁻¹. The same molecule registered a t½ in assay [3] of 21 min. Also, in assay [4], the “100 nM hLEPR-MMH Bound (RU)” value was found to be 72 RU; the affinity, expressed as Kd, was 21.5 nM; the koff turned out to be 0.000763 s⁻¹; the kon was 35500 M⁻¹ s⁻¹. The t½ in assay [4] is 15 min.
